Tests used:
[1] = molecular target: human DSG2 on cells (HeLa cells; polarized T84 cells) (human) (UniProt Q14126); assay: cell-based or functional assay
[2] = molecular target: human DSG2 on cells (HeLa cells; polarized T84 cells) (human) (UniProt Q14126); assay: attachment of 3H-labelled Ad3 virus (competitor) to HeLa cells pre-incubated with the dimeric knob
[3] = molecular target: T1, Recombinant human DSG2 protein (Leinco Technologies) (human, UniProt Q14126 50-609); assay: not given; SPR on immobilised DSG2 by the context (FIG. 7)
T1 construct: also called soluble DSG2; soluble recombinant DSG2
T1 sequence: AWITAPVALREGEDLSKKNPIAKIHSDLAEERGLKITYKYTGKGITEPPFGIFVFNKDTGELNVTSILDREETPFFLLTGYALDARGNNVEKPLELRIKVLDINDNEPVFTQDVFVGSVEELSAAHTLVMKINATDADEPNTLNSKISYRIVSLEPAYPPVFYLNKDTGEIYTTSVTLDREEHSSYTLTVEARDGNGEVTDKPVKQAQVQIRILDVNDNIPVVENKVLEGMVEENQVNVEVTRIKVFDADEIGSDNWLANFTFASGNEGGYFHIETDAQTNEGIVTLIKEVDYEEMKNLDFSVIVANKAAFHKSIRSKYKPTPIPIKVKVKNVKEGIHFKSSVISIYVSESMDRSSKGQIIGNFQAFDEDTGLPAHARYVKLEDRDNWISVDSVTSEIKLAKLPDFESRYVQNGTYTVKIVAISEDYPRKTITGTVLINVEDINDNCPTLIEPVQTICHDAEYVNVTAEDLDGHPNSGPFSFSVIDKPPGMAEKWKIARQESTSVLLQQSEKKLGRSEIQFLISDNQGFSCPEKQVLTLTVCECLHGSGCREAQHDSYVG

[4] = molecular target: T2, soluble CD46 (UniProt P15529 35-343); assay: Western blot, soluble CD46 as probe, anti-CD46 mAb
T2 construct: also called sCD46
T2 sequence: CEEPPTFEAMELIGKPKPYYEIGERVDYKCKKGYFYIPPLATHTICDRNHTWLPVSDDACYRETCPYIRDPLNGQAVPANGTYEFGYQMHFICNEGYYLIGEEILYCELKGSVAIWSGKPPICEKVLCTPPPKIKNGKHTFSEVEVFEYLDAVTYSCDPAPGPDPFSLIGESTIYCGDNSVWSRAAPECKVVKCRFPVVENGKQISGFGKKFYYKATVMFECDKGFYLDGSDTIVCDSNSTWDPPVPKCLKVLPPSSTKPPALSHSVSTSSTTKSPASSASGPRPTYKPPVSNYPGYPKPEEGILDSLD

[5] = molecular target: T1, Recombinant human DSG2 protein (Leinco …); assay: Western blot of the blotted knob probed with soluble hDSG2, anti-DSG2 (6D8), HRP-anti-mouse IgG [upper panel]
[6] = molecular target: T3, human DSG2 on cells (HeLa cells; polarized T84 cells) (human, UniProt Q14126 50-1118); assay: cell-based or functional assay
T3 sequence: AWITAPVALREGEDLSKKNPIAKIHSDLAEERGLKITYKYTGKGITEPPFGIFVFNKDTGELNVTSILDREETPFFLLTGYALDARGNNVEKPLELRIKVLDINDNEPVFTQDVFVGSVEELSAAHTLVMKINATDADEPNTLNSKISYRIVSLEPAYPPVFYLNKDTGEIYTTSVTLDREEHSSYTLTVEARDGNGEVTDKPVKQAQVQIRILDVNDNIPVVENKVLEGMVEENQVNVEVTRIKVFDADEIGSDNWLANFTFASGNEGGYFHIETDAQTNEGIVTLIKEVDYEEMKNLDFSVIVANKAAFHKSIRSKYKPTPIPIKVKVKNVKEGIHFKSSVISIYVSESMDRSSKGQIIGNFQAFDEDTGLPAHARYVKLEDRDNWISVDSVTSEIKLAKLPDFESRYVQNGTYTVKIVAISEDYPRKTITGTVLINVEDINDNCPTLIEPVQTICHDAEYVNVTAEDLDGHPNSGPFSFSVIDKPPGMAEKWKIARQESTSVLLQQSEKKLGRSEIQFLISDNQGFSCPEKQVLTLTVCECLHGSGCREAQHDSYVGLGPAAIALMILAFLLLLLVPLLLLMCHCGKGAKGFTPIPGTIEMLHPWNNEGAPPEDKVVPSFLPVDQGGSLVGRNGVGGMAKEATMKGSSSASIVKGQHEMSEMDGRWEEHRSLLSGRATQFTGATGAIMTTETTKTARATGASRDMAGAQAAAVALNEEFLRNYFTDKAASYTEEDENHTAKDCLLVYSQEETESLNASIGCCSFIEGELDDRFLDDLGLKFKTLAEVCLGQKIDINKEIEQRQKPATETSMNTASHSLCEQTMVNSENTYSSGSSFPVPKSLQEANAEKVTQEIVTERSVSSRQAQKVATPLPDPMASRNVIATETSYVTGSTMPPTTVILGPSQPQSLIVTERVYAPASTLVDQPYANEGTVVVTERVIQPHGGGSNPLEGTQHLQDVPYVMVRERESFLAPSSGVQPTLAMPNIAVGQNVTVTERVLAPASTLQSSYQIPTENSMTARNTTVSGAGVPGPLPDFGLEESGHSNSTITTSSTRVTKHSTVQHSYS

[7] = molecular target: T3, human DSG2 on cells (HeLa cells; …); assay: cell-based or functional assay; remark: listed apart in the source
[8] = molecular target: T1, Recombinant human DSG2 protein (Leinco …); assay: SPR (BIAcore 3000), DSG2 immobilised on CM4 chip, knob injected
[9] = molecular target: T1, Recombinant human DSG2 protein (Leinco …); assay: SPR (BIAcore 3000), DSG2 immobilised on the sensor chip, knobs injected at 2.5 to 10 µg/ml, BIAeval
[10] = molecular target: T1, Recombinant human DSG2 protein (Leinco …); assay: SPR (BIAcore 3000), DSG2 immobilised, BIAeval; as printed in this row, but kd/ka of the row gives 24.9 nM and paragraph 239 gives 405-fold over wt: the KD cells of Y250F and V239D look interchanged on the sheet
[11] = molecular target: T4, DSG2 (Homo sapiens, UniProt Q14126); assay: Surface plasmon resonance of non-dimerized Ad3 fiber knobs on immobilized DSG2; format: binding; conditions: knobs without dimerization domain
T4 construct: purchased Leinco Technologies, Inc. (St. Louis, Mo.)
T4 sequence (Q14126 50-609 limits assumed): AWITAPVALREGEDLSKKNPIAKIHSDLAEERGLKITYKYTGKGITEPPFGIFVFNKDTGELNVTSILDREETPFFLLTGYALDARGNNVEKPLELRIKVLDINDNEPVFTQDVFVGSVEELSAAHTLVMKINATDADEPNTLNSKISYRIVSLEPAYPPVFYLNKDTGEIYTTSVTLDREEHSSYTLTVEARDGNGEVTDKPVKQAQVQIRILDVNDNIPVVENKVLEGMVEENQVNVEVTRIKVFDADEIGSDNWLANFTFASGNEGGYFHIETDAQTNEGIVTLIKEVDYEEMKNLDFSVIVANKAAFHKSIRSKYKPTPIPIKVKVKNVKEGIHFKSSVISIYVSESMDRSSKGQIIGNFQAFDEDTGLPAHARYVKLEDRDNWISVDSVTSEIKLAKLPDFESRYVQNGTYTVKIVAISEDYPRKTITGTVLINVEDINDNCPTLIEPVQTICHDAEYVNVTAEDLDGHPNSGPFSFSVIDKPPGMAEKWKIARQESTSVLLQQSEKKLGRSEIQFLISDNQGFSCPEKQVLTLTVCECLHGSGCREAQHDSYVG
Procedure: FIG. 7. SPR analysis of non-dimerized Ad3 fiber knob interactions with DSG2. A) DSG2 was immobilized on sensorchips, and background was automatically subtracted from the control flow cell. The Ad3 fiber knobs (w/o dimerization domain: “noDD”) were injected for 3 minutes at 2.5 μg/ml followed by a 2.5 minutes dissociation period. B) Summary of SPR data. […] The extracted data are resumed in the table. Wt=Ad3 fiber knob without mutations
Acquisitions were done on a BIAcore 3000 instrument. HBS-N (GE-Healthcare, Pittsburgh, Pa.) supplemented with 2 mM CaCl2 was used as running buffer in all experiments at a flow rate of 5 μl/min Immobilization on CM4 sensorchip (BIAcore) was performed using DSG2 at 10 μg/ml diluted in 10 mM Acetate buffer pH 4.5 injected for 10 minutes on ethyl(dimethylaminopropyl) carbodiimide (EDC)/N-Hydroxysuccinimide (NHS) activated flow-cell. A control flow-cell was activated by (EDC/NHS) and inactivated by ethanolamine Different concentrations of Ad3 fiber knob proteins were injected for 3 minutes association followed by 2.5 minutes dissociation time, and the signal was automatically subtracted from the background of the ethanolamine deactivated EDC-NHS flow cell. Kinetic and affinity constants were calculated using the BIAeval software.

[12] = molecular target: T1, Recombinant human DSG2 protein (Leinco …); assay: SPR (BIAcore 3000), DSG2 immobilised, BIAeval; as printed in this row, but kd/ka of the row gives 11.4 nM and paragraph 239 gives 885-fold over wt: the KD cells of Y250F and V239D look interchanged on the sheet

Work on “dimeric Ad3 fiber knob mutant N186D, D261N, L296R (designed binder)” yielded an Inhibition of infection in the presence of dimeric knob (JO-1 = 100%) [1] of 0% and an Inhibition of attachment in the presence of dimeric knob (JO-1 = 100%) [2] of 18.5%.

B1: JO-4 (affinity-enhanced version of JO-1) (designed binder)
chain: MRGSHHHHHHGSKVSALKEKVSALKEKVSALKEKVSALKEKVSALKEGSGGGSGGGSGGGSNSIALKNNTLWTGPKPEANCIIEYGKQNPDSKLTLILVKNGGIVNGYVTLMGASDYVNTLFKNKNVSINVELYFDATGHILPDSSSLKTDLELKYKQTADFSARGFMPSTTAYPFVLPNAGTHNENFIFGQCYYKASDGALFPLEVTVMLNKRLPDSRTSYVMTFLWSLNAGLAPETTQATLITSPFTFSYIREDD
B1 was tested, and the Kd [3] was 11.4 nM.

B2: Ad3-S/Kn (ligand)
chain: NSIALKNNTLWTGPKPEANCIIEYGKQNPDSKLTLILVKNGGIVNGYVTLMGASDYVNTLFKNKNVSINVELYFDATGHILPDSSSLKTDLELKYKQTADFSARGFMPSTTAYPFVLPNAGTHNENYIFGQCYYKASDGALFPLEVTVMLNKRLPDSRTSYVMTFLWSLNAGLAPETTQATLITSPFTFSYIREDD
notes: also called wild-type Ad3 fibers
B2: no binding [4]; no binding [5].

B3: JO-1 (self-dimerizing trimeric wild-type Ad3 fiber knob) (designed binder)
chain: MKVSALKEKVSALKEKVSALKEKVSALKEKVSALKEGSGGGSGGGSGGGSNSIALKNNTLWTGPKPEANCIIEYGKQNPDSKLTLILVKNGGIVNGYVTLMGASDYVNTLFKNKNVSINVELYFDATGHILPDSSSLKTDLELKYKQTADFSARGFMPSTTAYPFVLPNAGTHNENYIFGQCYYKASDGALFPLEVTVMLNKRLPDSRTSYVMTFLWSLNAGLAPETTQATLITSPFTFSYIREDD
For B3, the “IC50 (read off the curve), % GFP-positive cells after Ad3-GFP infection of HeLa cells” value [6] was about 5 µg/mL and the “IC50 (read off the curve), GFP MFI after Ad3-GFP infection of HeLa cells” value [7] was about 0.6 µg/mL.

B4: Ad3 fiber knob mutant V239D without dimerization domain (ligand)
chain: NKLCSKLGNGLTFDSSNSIALKNNTLWTGPKPEANCIIEYGKQNPDSKLTLILVKNGGIVNGYVTLMGASDYVNTLFKNKNVSINVELYFDATGHILPDSSSLKTDLELKYKQTADFSARGFMPSTTAYPFDLPNAGTHNENYIFGQCYYKASDGALFPLEVTVMLNKRLPDSRTSYVMTFLWSLNAGLAPETTQATLITSPFTFSYIREDD
notes: range 108-319; also called V239D/noDD; not shown: N-terminal 6-His tag of pQE30 and linker
With B4 the “fold higher affinity than wt Ad3knob/noDD” value [8] was 405 fold, the koff [9] was 0.00266 s⁻¹ and the kon [9] was 107000 M⁻¹ s⁻¹. The Kd [10] was 11.4 nM.

B5: wt Ad3 knob: wild-type trimeric Ad3 fiber knob without the dimerization domain (protein)
chain: NKLCSKLGNGLTFDSSNSIALKNNTLWTGPKPEANCIIEYGKQNPDSKLTLILVKNGGIVNGYVTLMGASDYVNTLFKNKNVSINVELYFDATGHILPDSSSLKTDLELKYKQTADFSARGFMPSTTAYPFVLPNAGTHNENYIFGQCYYKASDGALFPLEVTVMLNKRLPDSRTSYVMTFLWSLNAGLAPETTQATLITSPFTFSYIREDD
modifications: left off: small tags and cut ends
notes: wild-type trimeric Ad3 fiber knob without the dimerization domain
With B5 the “Association rate to DSG2” value [11] was “slow association rate”.

B6: N293S/noDD (protein)
chain: NKLCSKLGNGLTFDSSNSIALKNNTLWTGPKPEANCIIEYGKQNPDSKLTLILVKNGGIVNGYVTLMGASDYVNTLFKNKNVSINVELYFDATGHILPDSSSLKTDLELKYKQTADFSARGFMPSTTAYPFVLPNAGTHNENYIFGQCYYKASDGALFPLEVTVMLNKRLPDSRTSYVMTFLWSLSAGLAPETTQATLITSPFTFSYIREDD
modifications: left off: small tags and cut ends
B6 was tested, and the “Association rate to DSG2” value [11] was “association rate was lowest”.

B7: Ad3 fiber knob mutant Y250F without dimerization domain (ligand)
chain: NKLCSKLGNGLTFDSSNSIALKNNTLWTGPKPEANCIIEYGKQNPDSKLTLILVKNGGIVNGYVTLMGASDYVNTLFKNKNVSINVELYFDATGHILPDSSSLKTDLELKYKQTADFSARGFMPSTTAYPFVLPNAGTHNENFIFGQCYYKASDGALFPLEVTVMLNKRLPDSRTSYVMTFLWSLNAGLAPETTQATLITSPFTFSYIREDD
notes: range 108-319; also called Y250F/noDD; not shown: N-terminal 6-His tag of pQE30 and linker
With B7 the “fold higher affinity than wt Ad3knob/noDD” value [8] was 885 fold, the koff [9] was 0.00264 s⁻¹ and the kon [9] was 232000 M⁻¹ s⁻¹. It also gave a Kd [12] of 24.9 nM.
